From PMC4736438, “Cation–π Interactions Contribute to Substrate Recognition in γ‐Butyrobetaine Hydroxylase Catalysis” (Chemistry (Weinheim an Der Bergstrasse, Germany), 2015)

T1: psBBOX (Pseudomonas sp. AK-1, UniProt P80193)
T1 construct: recombinant, purified on HisTrap and Superdex S200; metal-free buffer
T1 sequence (P80193 1-383): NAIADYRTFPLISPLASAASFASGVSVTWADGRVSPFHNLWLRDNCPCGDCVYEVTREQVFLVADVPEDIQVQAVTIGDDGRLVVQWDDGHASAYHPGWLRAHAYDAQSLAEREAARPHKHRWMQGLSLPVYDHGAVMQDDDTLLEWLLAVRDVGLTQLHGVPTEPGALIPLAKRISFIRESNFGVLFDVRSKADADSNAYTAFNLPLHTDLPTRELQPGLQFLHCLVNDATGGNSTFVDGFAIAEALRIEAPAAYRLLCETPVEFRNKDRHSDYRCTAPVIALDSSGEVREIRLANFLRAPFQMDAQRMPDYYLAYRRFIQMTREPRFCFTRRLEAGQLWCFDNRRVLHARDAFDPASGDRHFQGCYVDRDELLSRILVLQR

B1: psBBOX (Pseudomonas sp. AK-1) (protein)
chain: T1 sequence (P80193 1-383)
notes: recombinant, purified on HisTrap and Superdex S200; metal-free buffer

Legend:
psBBOX = target: T1, psBBOX; experiment: 1H NMR (CPMG) protein titration; format: binding
[1] = substrate: C[N+](C)(C)CCCC(=O)[O-]; experiment: LC-MS hydroxylation kinetics; format: biochemical, Pseudomonas sp. AK-1; settings: […] psBBOX, […] FeSO4, […] 2OG, […] ascorbate, Tris pH […] K
Description: LC-MS hydroxylation kinetics on psBBOX

Molecule	Kd (psBBOX) [µM]	Km [1] [µM]	Vmax [1] [µM/min]	kcat [1] [s⁻¹]
C[N+](C)(C)CCCC(=O)[O-] [compound 1, γBB]	5			
B1		1000 ± 210	169	7.02 ± 0.77
